This note sets out measurements from patent US20230235058A1 (OXFORD UNIVERSITY INNOVATION, published 2023).

The EC50 is the concentration giving half of the maximal effect. Higher therefore signals a less potent agent. Usually Kd stands for the equilibrium constant for the complex coming apart. High values mean weaker binding, low ones tighter binding. As a reminder, the koff is the rate constant with which the complex falls apart. Lower therefore signals slow dissociation. One may read the kon as the second-order rate constant of association. Read a high kon as faster complex formation.

The target in assay [1] is T1, full length human BTLA expressed on cells (human, UniProt Q7Z6A9 31-289). In words: cell-based or functional assay.
For assay [2], the target named is T2, full length cynomolgus BTLA expressed on Jurkat cells (cynomolgus monkey, UniProt Q7Z6A9 31-289 (human entry)).
T2 construct: also called cynomolgus BTLA expressing cells
T2 chain: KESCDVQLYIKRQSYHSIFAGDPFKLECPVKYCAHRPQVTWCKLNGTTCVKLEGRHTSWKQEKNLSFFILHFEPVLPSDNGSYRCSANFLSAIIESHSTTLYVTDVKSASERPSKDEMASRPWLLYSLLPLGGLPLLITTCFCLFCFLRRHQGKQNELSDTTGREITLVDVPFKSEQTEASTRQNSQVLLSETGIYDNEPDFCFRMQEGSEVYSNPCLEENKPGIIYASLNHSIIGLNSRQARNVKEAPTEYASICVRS
In words: flow cytometry, BTLA Jurkat cells. On the technique in general: A flow cytometer gives signals particle by particle.
Description: (§1) A lentiviral transfection system was used to express full length human or cynomolgus BTLA in a Jurkat T cell line. 1×10⁵ cells per well were plated in 96 well U-bottom plates. […] Secondary antibody was incubated for 30 minutes on ice, then cells were washed and resuspended in FACS buffer for analysis on a flow cytometer. The geometric mean fluorescent intensity of secondary antibody was plotted for each concentration and the EC50 for receptor binding calculated by non-linear curve fitting using GraphPad Prism software.
(§2) The ability of the BTLA agonist antibodies of the present invention to bind to human or cynomolgus BTLA expressed on the cell surface was assessed by flow cytometry. A lentiviral transfection system was used to express full length human or cynomolgus BTLA in a Jurkat T cell line. 1×10⁵ cells per well were plated in 96 well U-bottom plates.

Assay [3] has as its target T1, full length human BTLA expressed on …. The assay can be described thus: flow cytometry, BTLA Jurkat cells.
Description: as §1, §2
Assay [4] addresses T3, soluble cynomolgus macaque BTLA extracellular domain (BTLA K31-R151) (cynomolgus macaque).
T3 construct: also called cynomolgus BTLA; cyno BTLA
T3 chain: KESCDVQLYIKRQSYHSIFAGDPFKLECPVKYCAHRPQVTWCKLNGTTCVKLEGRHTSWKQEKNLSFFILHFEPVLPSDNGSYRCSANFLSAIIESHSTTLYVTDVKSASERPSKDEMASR
In words: SPR Biacore 8K 37C, single cycle kinetics.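 Further: antibody captured on sensor chip, soluble BTLA extracellular domain flowed over at several concentrations in HBS-EP pH 7.4, rates fitted after subtracting isotype-control reference channel and blank.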 On the technique in general: SPR reads the build-up and loss of mass on a sensor chip optically.
Description: (§3) The binding affinity and kinetics of humanised BTLA agonist antibodies to human or cynomolgus BTLA were determined by surface plasmon resonance using the Biacore 8K (GE Healthcare). […] Anti-BTLA antibody was then captured onto the biosensor surface and a negative control antibody (human IgG1k isotype control; Sino Biological cat #HG1K) captured in the reference channel. Various concentrations of monomeric soluble human BTLA extracellular domain (BTLA^K31-R151, produced recombinantly in house) or soluble cynomolgus macaque BTLA extracellular domain (BTLA^K31-R151, produced recombinantly in house) were then injected over the immobilized antibodies in the buffer HBS-EP (GE Healthcare, cat #BR100669), pH 7.4 (HBS-P) at 37° C., in a single cycle kinetics analysis.

Assay [5] has as its target T4, monomeric soluble human BTLA extracellular domain (BTLA K31-R151) (human, UniProt Q7Z6A9 31-151).
T4 construct: also called hBTLA; monomeric BTLA
The assay can be described thus: SPR Biacore 8K 37C, single cycle kinetics.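 Further: antibody captured on sensor chip, soluble BTLA extracellular domain flowed over at several concentrations in HBS-EP pH 7.4, rates fitted after subtracting isotype-control reference channel and blank.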
Description: as §3

A further assay deals with T5, human FcγR1A (human, UniProt P12314 16-288, biotinylated).
T5 construct: bought; also called CD64A
T5 sequence (P12314 16-288): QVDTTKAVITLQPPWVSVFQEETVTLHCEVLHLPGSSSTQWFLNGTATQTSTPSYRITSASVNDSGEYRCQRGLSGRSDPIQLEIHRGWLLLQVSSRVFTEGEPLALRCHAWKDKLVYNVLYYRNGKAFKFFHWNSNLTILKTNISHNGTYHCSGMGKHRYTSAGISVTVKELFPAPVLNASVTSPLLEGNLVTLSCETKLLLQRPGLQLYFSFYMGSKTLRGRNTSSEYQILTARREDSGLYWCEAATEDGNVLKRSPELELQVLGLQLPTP
The assay can be described thus: SPR 37C, kinetic.

Another assay concerns the target T6, human FcγR2A 131H (human, UniProt P12318 34-217).
T6 construct: extracellular domain
T6 sequence (looked up): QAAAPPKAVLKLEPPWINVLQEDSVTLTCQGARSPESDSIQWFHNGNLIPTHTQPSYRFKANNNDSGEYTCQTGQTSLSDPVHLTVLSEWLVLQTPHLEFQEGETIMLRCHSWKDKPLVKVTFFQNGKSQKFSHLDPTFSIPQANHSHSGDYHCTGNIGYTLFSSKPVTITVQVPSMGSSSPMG
The assay can be described thus: SPR 37C, steady state.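 Further: fc variants captured on chip-bound human BTLA ectodomain, recombinant FcγR ectodomains injected as analyte at varied concentrations, double-referenced equilibrium binding fitted to Langmuir model.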

The target in another assay is T7, human FcγR3A 158F (human, UniProt P08637 17-208).
T7 construct: extracellular domain
T7 sequence (P08637 17-208): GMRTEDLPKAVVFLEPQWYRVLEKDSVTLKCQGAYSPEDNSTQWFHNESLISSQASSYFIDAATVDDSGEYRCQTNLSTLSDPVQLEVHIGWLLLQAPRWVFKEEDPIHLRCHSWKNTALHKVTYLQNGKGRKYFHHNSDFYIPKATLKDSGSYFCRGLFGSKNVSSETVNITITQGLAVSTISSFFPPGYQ
In words: SPR 37C, steady state.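 Further: fc variants captured on chip-bound human BTLA ectodomain, recombinant FcγR ectodomains injected as analyte at varied concentrations, double-referenced equilibrium binding fitted to Langmuir model.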

The next assay addresses T8, human FcγR2B (human, UniProt P31994 43-217).
T8 construct: extracellular domain; also called hFcγR2B; CD32B
T8 sequence (looked up): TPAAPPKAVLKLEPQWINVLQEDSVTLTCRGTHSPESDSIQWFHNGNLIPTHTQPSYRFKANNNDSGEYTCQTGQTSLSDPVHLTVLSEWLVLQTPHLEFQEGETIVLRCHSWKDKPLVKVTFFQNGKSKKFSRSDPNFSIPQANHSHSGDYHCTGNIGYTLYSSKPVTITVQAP
In words: SPR 37C, steady state.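 Further: fc variants captured on chip-bound human BTLA ectodomain, recombinant FcγR ectodomains injected as analyte at varied concentrations, double-referenced equilibrium binding fitted to Langmuir model.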

Another assay addresses T9, human FcγR3A 158V (human, UniProt P08637 17-208).
T9 construct: extracellular domain
In words: SPR 37C, steady state.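 Further: fc variants captured on chip-bound human BTLA ectodomain, recombinant FcγR ectodomains injected as analyte at varied concentrations, double-referenced equilibrium binding fitted to Langmuir model.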

The target in the next assay is T10, human FcγR2A 131R (human, UniProt P12318 34-217).
T10 construct: extracellular domain
T10 sequence (looked up): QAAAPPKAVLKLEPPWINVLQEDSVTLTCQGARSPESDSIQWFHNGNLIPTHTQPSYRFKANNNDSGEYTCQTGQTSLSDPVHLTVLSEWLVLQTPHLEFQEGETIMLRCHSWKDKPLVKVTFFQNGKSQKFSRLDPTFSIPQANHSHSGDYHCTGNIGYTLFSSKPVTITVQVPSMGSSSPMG
The assay can be described thus: SPR 37C, steady state.

The next assay addresses T11, human FcγR3B (human, UniProt O75015 17-200, limits assumed).
T11 construct: extracellular domain; also called CD16B
The assay can be described thus: SPR 37C, steady state.

The target of another assay is T12, human FcRn (human, UniProt P55899 24-297; P61769 21-119, limits assumed, biotinylated).
T12 construct: bought; also called FcRn pH6
T12 sequence (P55899 24-297 limits assumed, chain 1 of 2): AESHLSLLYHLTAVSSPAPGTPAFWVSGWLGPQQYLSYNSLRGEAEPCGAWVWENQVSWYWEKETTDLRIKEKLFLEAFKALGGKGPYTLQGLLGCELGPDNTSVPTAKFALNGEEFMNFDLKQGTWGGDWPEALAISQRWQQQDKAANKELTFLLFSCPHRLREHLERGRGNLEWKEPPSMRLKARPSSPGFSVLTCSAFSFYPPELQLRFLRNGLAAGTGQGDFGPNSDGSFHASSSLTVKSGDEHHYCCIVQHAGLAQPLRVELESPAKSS
T12 sequence (P61769 21-119 limits assumed, chain 2 of 2): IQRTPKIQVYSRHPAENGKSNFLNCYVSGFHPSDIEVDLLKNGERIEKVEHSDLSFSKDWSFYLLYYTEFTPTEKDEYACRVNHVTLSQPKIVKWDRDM
The assay can be described thus: SPR, pH6.0.

T9 sequence (P08637 17-208 F176V): as the sequence (P08637 17-208) above, with F160V counted along it
T11 sequence (O75015 17-200 limits assumed): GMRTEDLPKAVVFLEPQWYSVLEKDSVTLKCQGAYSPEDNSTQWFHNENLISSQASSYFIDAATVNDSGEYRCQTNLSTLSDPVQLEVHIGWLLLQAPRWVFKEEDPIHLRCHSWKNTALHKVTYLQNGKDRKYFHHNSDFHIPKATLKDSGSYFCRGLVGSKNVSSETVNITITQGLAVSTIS
Description for human FcRn: For the high affinity FcR interactions (FcγR1A, and also FcRn assessed at pH6.0) the binding was assessed in a kinetic analysis with antibody as analyte. […] Reference flow cell 1 was left empty in all channels. Purified antibody was then injected at a single concentration and on/off rates calculated by curve fitting on BiaEvaluation software. […] IgG Fc has two binding sites for FcRn so this assessment performed with FcRn immobilised at high density provides an avidity estimate for the interaction rather than a true KD.
Description for human FcγR1A: For the high affinity FcR interactions (FcγR1A, and also FcRn assessed at pH6.0) the binding was assessed in a kinetic analysis with antibody as analyte. […] Reference flow cell 1 was left empty in all channels. Purified antibody was then injected at a single concentration and on/off rates calculated by curve fitting on BiaEvaluation software.

B1: hHVEM-mFc fusion protein (human HVEM extracellular domain fused to mouse IgG1 Fc) (Fc fusion)
chain: LPSCKEDEYPVGSECCPKCSPGYRVKEACGELTGTVCEPCPPGTYIAHLNGLSKCLQCQMCDPAMGLRASRNCSRTENAVCGCSPGHFCIVQDGDHCAACRAYATSSPGQRVQKGGTESQDTLCQNCPPGTFSPNGTLEECQHQTKCSWLVTKAGAGTSSSHLVPRGSGSKPSISTVPEVSSVFIFPPKPKDVLTITLTPKVTCVVVDISKDDPEVQFSWFVDDVEVHTAQTQPREEQFNSTFRSVSELPIMHQDWLNGKEFKCRVNSAAFPAPIEKTISKTKGRPKAPQVYTIPPPKEQMAKDKVSLTCMITDFFPEDITVEWQWNGQPAENYKNTQPIMDTDGSYFVYSKLNVQKSNWEAGNTFTCSVLHEGLHNHHTEKSLSHSPGKHHHHHH
Regarding B1, in assay [1], the “inhibition of NFkB signal, IC50” value stood at 9600 pM and the “maximal inhibition of NFkB signal” value was found to be 27%.

B2: Engineered humanised 3E8 (Variant B) (antibody, V domains shown)
VH: QVQLVQSGAELKKPGASVKVSCKASGYTFTSYAIRWVRQATGQGLEWMGEIYPRSGNTYYAQKFQGRATLTADKSISTAYMELSSLRSEDTAVYFCARSGGASYTMDYWGQGTTVTVSS
VL: ENVLTQSPATLSLSLGERATLSCSASSSVSSSYLHWYQQKPDQSPRPLIHRTSNLASGIPSRFSGSGSGTDYTLTISSLEAEDFAVYYCQQWSGYPFTFGSGTKLEIKR
Regarding B2, the midpoint of the response in [2], the EC50, lay at 0.0156 µM. In [3], this molecule registered an EC50 of 177 pM. In assay [4], this molecule showed a Kd of 1.52 µM, a koff of 0.431 s⁻¹ and a kon of 287000 M⁻¹ s⁻¹. In assay [5], binding was put at a Kd of 0.141 µM, the koff was 0.122 s⁻¹ and the kon amounted to 865000 M⁻¹ s⁻¹. In assay [1], the “inhibition of NFkB signal, IC50” value was 65 pM and the “maximal inhibition of NFkB signal” value was found to be 54%.

B3: Engineered humanised 6.2 (Variant C) (antibody, V domains shown)
VH: EVQLVESGGGLVKPGGSLRLSCAASGFTLSSYGMSWVRQAPGKGLEWVASIRSDGQTYYPDSVKGRFTISRDNAKNTLYLQMSSLRAEDTAVYYCTRGGYYGSSPYYWGQGTTVTVSS
VL: DIVMTQSPLSLPVTPGEPASISCKSSQSLLYSSNQKNYLAWYQQKPGQSPKLLIYWASTRESGVPDRFSGSGSGTDFTLKISRVEAEDVGVYYCQQYYNYLTFGGGTKVEIKR
Molecule B3 returned an EC50 in assay [2] of 0.000148 µM. In [3], this molecule yielded an EC50 of 62 pM. In [4], this molecule displayed a dissociation constant (Kd) of 0.0154 µM, a koff of 0.00352 s⁻¹ and a kon of 229000 M⁻¹ s⁻¹. In [5], this molecule showed a Kd of 0.00125 µM, a koff of 0.00133 s⁻¹ and a kon of 1.06e+06 M⁻¹ s⁻¹. In [1], the “inhibition of NFkB signal, IC50” value is 28 pM and the “maximal inhibition of NFkB signal” value was 47%.

B4: humanised 2.8.6 hIgG1 D265A G236D S267E A330R (antibody)
heavy: QVTLKESGPALVKPTQTLTLTCTVSGFSLTTYGVHWIRQPPGKALEWLGVMWPGGRTSYNPSLKSRLTITKDNSKSQVVLTMTNMDPVDTATYYCVRGDYEYDYYAMDYWGQGTLVTVSSASTKGPSVFPLAPSSKSTSGGTAALGCLVKDYFPEPVTVSWNSGALTSGVHTFPAVLQSSGLYSLSSVVTVPSSSLGTQTYICNVNHKPSNTKVDKKVEPKSCDKTHTCPPCPAPELLDGPSVFLFPPKPKDTLMISRTPEVTCVVVAVEHEDPEVKFNWYVDGVEVHNAKTKPREEQYNSTYRVVSVLTVLHQDWLNGKEYKCKVSNKALPRPIEKTISKAKGQPREPQVYTLPPSREEMTKNQVSLTCLVKGFYPSDIAVEWESNGQPENNYKTTPPVLDSDGSFFLYSKLTVDKSRWQQGNVFSCSVMHEALHNHYTQKSLSLSPGK
light: EIVLTQSPATLSLSPGERATLSCRASSSVSYMHWYQQKPGQAPRPLIYATSNRATGIPARFSGSGSGTDYTLTISSLEPEDFAVYYCHQWSSNPYTFGQGTKLEIKRTVAAPSVFIFPPSDEQLKSGTASVVCLLNNFYPREAKVQWKVDNALQSGNSQESVTEQDSKDSTYSLSSTLTLSKADYEKHKVYACEVTHQGLSSPVTKSFNRGEC
notes: Fc variant with the variable domains of humanised 2.8.6; copies: 2 + 2
Take B4: the binding result with human FcγR1A, with human FcγR2A 131H, with human FcγR3A 158F, in the assay with human FcγR3A 158V and in the assay with human FcγR3B was “no binding” each time. Besides, the Kd with human FcγR2B worked out at 104 µM; with human FcγR2A 131R, 54.4 µM.

B5: humanised 2.8.6 hIgG1 delta ac (antibody)
chain 1: QVTLKESGPALVKPTQTLTLTCTVSGFSLTTYGVHWIRQPPGKALEWLGVMWPGGRTSYNPSLKSRLTITKDNSKSQVVLTMTNMDPVDTATYYCVRGDYEYDYYAMDYWGQGTLVTVSSASTKGPSVFPLAPSSKSTSGGTAALGCLVKDYFPEPVTVSWNSGALTSGVHTFPAVLQSSGLYSLSSVVTVPSSSLGTQTYICNVNHKPSNTKVDKKVEPKSCDKTHTCPPCPAPPVAGGPSVFLFPPKPKDTLMISRTPEVTCVVVDVSHEDPEVKFNWYVDGVEVHNAKTKPREEQYNSTYRVVSVLTVLHQDWLNGKEYKCKVSNKGLPSSIEKTISKAKGQPREPQVYTLPPSRDELTKNQVSLTCLVKGFYPSDIAVEWESNGQPENNYKTTPPVLDSDGSFFLYSKLTVDKSRWQQGNVFSCSVMHEALHNHYTQKSLSLSP
chain 2: EIVLTQSPATLSLSPGERATLSCRASSSVSYMHWYQQKPGQAPRPLIYATSNRATGIPARFSGSGSGTDYTLTISSLEPEDFAVYYCHQWSSNPYTFGQGTKLEIKRTVAAPSVFIFPPSDEQLKSGTASVVCLLNNFYPREAKVQWKVDNALQSGNSQESVTEQDSKDSTYSLSSTLTLSKADYEKHKVYACEVTHQGLSSPVTKSFNRGEC
For B5, the Kd with human FcγR1A was determined as 2.85 µM; in the assay with human FcγR2A 131H, 82.2 µM; in the assay with human FcγR3A 158F it was 344 µM; with human FcγR2B it was 131 µM; in the assay with human FcγR3A 158V it was 96.4 µM; with human FcγR2A 131R, 79.3 µM. For the same molecule, in the assay with human FcRn, the “avidity (FcRn pH6)” value is 11.9 nM.

B6: humanised 2.8.6 hIgG1 delta ab (antibody)
chain 1: QVTLKESGPALVKPTQTLTLTCTVSGFSLTTYGVHWIRQPPGKALEWLGVMWPGGRTSYNPSLKSRLTITKDNSKSQVVLTMTNMDPVDTATYYCVRGDYEYDYYAMDYWGQGTLVTVSSASTKGPSVFPLAPSSKSTSGGTAALGCLVKDYFPEPVTVSWNSGALTSGVHTFPAVLQSSGLYSLSSVVTVPSSSLGTQTYICNVNHKPSNTKVDKKVEPKSCDKTHTCPPCPAPPVAGPSVFLFPPKPKDTLMISRTPEVTCVVVDVSHEDPEVKFNWYVDGVEVHNAKTKPREEQYNSTYRVVSVLTVLHQDWLNGKEYKCKVSNKGLPSSIEKTISKAKGQPREPQVYTLPPSRDELTKNQVSLTCLVKGFYPSDIAVEWESNGQPENNYKTTPPVLDSDGSFFLYSKLTVDKSRWQQGNVFSCSVMHEALHNHYTQKSLSLSP
chain 2: EIVLTQSPATLSLSPGERATLSCRASSSVSYMHWYQQKPGQAPRPLIYATSNRATGIPARFSGSGSGTDYTLTISSLEPEDFAVYYCHQWSSNPYTFGQGTKLEIKRTVAAPSVFIFPPSDEQLKSGTASVVCLLNNFYPREAKVQWKVDNALQSGNSQESVTEQDSKDSTYSLSSTLTLSKADYEKHKVYACEVTHQGLSSPVTKSFNRGEC
For B6, the “avidity (FcRn pH6)” value with human FcRn worked out at 14.8 nM. In addition, the Kd with human FcγR2A 131H stood at 4.86 µM; in the assay with human FcγR3A 158F it was 722 µM; in the assay with human FcγR2B, 82.5 µM; with human FcγR3A 158V it was 494 µM; with human FcγR2A 131R it was 9.56 µM; in the assay with human FcγR3B, 2820 µM.
